Reference: patent US20140323392A1

Columns and labels:
[1] = target: HIV-1 HXB2 envelope glycoprotein gp41 (N-trimer of the prehairpin intermediate) (HIV-1 strain HXB2) (UniProt P04578); assay: cell-based or functional assay
[2] = target: HIV-1 JRFL envelope glycoprotein gp41 (N-trimer of the prehairpin intermediate) (HIV-1 strain JRFL); assay: cell-based or functional assay

| Substance | IC50, HXB2 pseudovirion entry [1] [nM] | IC50, JRFL pseudovirion entry [2] [nM] |
| --- | --- | --- |
| C34 (from UniProt P04578 628-661) (peptide) | 1.4 | 13.4 |
| C34-PEG2-Chol (from UniProt P04578 628-661) (peptide) | 0.044 | 0.05 |
| C34-PEG11-Chol (from UniProt P04578 628-661) (peptide) | 0.021 | 0.024 |
| C34-PEG80-Chol (from UniProt P04578 628-661) (peptide) | 0.022 | 0.1 |
